# Assay results as given in patent US20220363757A1 (SYMPHOGEN A S, published 2022).
# T1: human LAG-3 domain 1-2 Fc fusion, chimeric construct #22 (mutated region AA 140-142) (human, UniProt P18627 23-266)
# T1 construct: not shown: human IgG1 Fc, AA P101-K330
# T1 chain: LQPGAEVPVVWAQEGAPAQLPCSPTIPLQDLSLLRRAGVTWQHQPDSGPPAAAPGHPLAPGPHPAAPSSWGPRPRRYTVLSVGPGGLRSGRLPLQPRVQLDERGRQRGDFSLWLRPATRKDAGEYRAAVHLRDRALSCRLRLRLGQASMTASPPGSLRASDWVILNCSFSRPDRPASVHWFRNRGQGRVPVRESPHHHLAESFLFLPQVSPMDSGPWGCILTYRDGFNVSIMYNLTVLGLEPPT
# T2: human LAG-3 domain 1-2 Fc fusion, chimeric construct #25 (mutated region AA 154-158) (human, UniProt P18627 23-266)
# T2 construct: not shown: human IgG1 Fc, AA P101-K330
# T2 chain: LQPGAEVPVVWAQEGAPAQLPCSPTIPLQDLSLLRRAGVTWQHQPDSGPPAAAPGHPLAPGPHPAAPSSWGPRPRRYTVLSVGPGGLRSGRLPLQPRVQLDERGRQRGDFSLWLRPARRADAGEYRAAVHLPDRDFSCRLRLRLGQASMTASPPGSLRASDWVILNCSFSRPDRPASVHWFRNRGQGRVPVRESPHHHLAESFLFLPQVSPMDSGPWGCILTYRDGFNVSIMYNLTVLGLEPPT
# T3: human LAG-3 domain 1-2 Fc fusion, chimeric construct #28 (mutated region AA 84-90, cynomolgus backmutations) (human, UniProt P18627 23-266)
# T3 construct: not shown: human IgG1 Fc, AA P101-K330
# T3 chain: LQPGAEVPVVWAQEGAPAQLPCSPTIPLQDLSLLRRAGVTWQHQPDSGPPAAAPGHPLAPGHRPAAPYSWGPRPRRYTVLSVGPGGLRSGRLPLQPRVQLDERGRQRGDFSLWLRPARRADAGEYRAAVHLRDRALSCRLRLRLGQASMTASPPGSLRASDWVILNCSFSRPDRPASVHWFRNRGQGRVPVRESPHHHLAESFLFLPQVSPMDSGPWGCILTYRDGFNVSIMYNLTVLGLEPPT
# T4: human LAG-3 domain 1-2 Fc fusion, chimeric construct #11 (mutated region AA 74-82) (human, UniProt P18627 23-266)
# T4 construct: not shown: human IgG1 Fc, AA P101-K330
# T4 chain: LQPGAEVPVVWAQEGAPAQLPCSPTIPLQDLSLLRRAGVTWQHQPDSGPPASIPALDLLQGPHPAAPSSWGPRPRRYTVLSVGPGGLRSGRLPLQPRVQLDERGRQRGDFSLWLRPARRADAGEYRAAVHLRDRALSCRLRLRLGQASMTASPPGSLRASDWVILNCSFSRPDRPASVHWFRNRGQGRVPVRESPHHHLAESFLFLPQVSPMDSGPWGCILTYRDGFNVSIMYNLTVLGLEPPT
# T5: human LAG-3 domain 1-2 Fc fusion, chimeric construct #3 (mutated region AA 40-41) (human, UniProt P18627 23-266)
# T5 construct: not shown: human IgG1 Fc, AA P101-K330
# T5 chain: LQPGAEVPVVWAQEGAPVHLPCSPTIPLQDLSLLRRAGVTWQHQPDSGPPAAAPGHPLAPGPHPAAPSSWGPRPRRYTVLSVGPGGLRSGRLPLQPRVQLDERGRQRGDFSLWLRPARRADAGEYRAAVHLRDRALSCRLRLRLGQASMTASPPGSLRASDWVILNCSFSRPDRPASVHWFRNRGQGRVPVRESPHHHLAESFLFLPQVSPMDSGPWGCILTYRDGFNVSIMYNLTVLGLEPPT
# T6: human LAG-3 domain 1-2 Fc fusion, chimeric construct #18 (mutated region AA 114-119) (human, UniProt P18627 23-266)
# T6 construct: not shown: human IgG1 Fc, AA P101-K330
# T6 chain: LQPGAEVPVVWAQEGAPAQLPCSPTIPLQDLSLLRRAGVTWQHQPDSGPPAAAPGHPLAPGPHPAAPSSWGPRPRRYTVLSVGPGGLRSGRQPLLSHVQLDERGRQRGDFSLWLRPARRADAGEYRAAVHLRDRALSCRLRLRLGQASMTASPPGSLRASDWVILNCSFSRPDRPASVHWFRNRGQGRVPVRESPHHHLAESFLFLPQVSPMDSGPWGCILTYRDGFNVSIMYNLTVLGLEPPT
# T7: human LAG-3 domain 1-2 Fc fusion, chimeric construct #2 (mutated region AA 29-30) (human, UniProt P18627 23-266)
# T7 construct: not shown: human IgG1 Fc, AA P101-K330
# T7 chain: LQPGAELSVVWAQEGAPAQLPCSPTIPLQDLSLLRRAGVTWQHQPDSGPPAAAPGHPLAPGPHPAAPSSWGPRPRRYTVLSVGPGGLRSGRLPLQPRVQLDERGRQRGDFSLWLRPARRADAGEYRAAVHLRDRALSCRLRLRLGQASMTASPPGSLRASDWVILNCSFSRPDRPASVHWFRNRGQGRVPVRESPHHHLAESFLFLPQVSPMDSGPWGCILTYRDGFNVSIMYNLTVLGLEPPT
# T8: human LAG-3 domain 1-2 Fc fusion, point mutation #55 S111A (human, UniProt P18627 23-266)
# T8 construct: not shown: human IgG1 Fc, AA P101-K330
# T8 sequence: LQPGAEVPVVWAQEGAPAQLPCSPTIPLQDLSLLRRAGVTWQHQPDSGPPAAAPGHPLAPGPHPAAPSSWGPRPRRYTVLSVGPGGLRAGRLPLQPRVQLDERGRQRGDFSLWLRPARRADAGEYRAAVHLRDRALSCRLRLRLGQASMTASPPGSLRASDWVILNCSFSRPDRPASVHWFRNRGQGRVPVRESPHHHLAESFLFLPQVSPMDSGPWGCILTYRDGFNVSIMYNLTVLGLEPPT
# T9: human LAG-3 domain 1-2 Fc fusion, point mutation #74 P138A (human, UniProt P18627 23-266)
# T9 construct: not shown: human IgG1 Fc, AA P101-K330
# T9 sequence: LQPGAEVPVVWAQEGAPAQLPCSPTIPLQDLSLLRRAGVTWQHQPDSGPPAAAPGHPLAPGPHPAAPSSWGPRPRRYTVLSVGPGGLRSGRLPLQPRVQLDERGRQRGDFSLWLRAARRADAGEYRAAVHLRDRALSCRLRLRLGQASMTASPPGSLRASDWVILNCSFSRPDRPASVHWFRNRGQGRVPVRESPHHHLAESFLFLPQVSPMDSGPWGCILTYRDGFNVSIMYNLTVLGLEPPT
# Tests used:
# Test in all cases: SPR, Fab over captured mutant LAG-3-Fc
# [1] = target: T1, human LAG-3 domain 1-2 Fc fusion, …
# Description: (§1) The LAG-3 fusion proteins were immobilized onto a G-a-hu-IgG Fc SensEye® (Ssens BV, The Netherlands) for 15 minutes using a Continuous Flow Microspotter (CFM, Wasatch Microfluidics, Salt Lake City, US). After spotting, the SensEye® was positioned in an IBIS MX96 biosensor and captured proteins were evaluated for binding affinity. […] Fab association was performed for 15 minutes and antigen dissociation was performed for 15 minutes. The recorded binding responses were fitted to a simple Langmuir 1:1 binding model with Scrubber 2 software for calculation of the on-rate (kon or ka), off-rate (koff or kd) and affinity (KD) constants.
# [2] = target: T2, human LAG-3 domain 1-2 Fc fusion, …
# Description: as §1
# [3] = target: T3, human LAG-3 domain 1-2 Fc fusion, …
# Description: as §1
# [4] = target: T4, human LAG-3 domain 1-2 Fc fusion, …
# Description: as §1
# [5] = target: T5, human LAG-3 domain 1-2 Fc fusion, …
# Description: as §1
# [6] = target: T6, human LAG-3 domain 1-2 Fc fusion, …
# Description: as §1
# [7] = target: T7, human LAG-3 domain 1-2 Fc fusion, …
# Description: as §1
# [8] = target: T8, human LAG-3 domain 1-2 Fc fusion, point …
# [9] = target: T9, human LAG-3 domain 1-2 Fc fusion, point …
KD mutant/KD wild type [1] [fold],KD mutant/KD wild type [2] [fold],KD mutant/KD wild type [3] [fold],KD mutant/KD wild type [4] [fold],KD mutant/KD wild type [5] [fold],KD mutant/KD wild type [6] [fold],KD mutant/KD wild type [7] [fold],KD mutant/KD wild type [8] [fold],KD mutant/KD wild type [9] [fold],binding result [5],binding result [7],binding result [9],binding result [2],Binder
1.3,1.1,4.8,1.5,2.2,1.1,3.1,1,2.7,–,–,–,–,"Fab fragment of antibody 15532 (Fab, V domains shown, not shown: a dimerising Fc or GST, monomeric Fab made by GingisKHAN digestion of the IgG1) VH: QVQLQQWGAGLLRPSETLSLTCAVYGESFSGYYWNWIRQPPGKGLEWIGEINHSGSTNYNPSLKSRVTISVDTSKTQFSLKLSSVTAADTAVYYCARGWDLLDWNDYWNEYWGQGTLVTVSS VL: EIVLTQSPATLSLSPGERATLSCRASQSVSSYLAWYQQKPGQAPRLLIYDASNRATGIPARFSGSGSGTDFTLTISSLEPEDFAVYYCQQRSNWPLTFGGGTKVEIKR"
0.8,–,0.5,0.5,–,0.6,–,0.7,–,no binding (tested: 300 nM),no binding (tested: 300 nM),no binding (tested: 300 nM),no binding (tested: 300 nM),"Fab fragment of antibody 15572 (Fab, V domains shown, not shown: a dimerising Fc or GST, monomeric Fab made by GingisKHAN digestion of the IgG1) VH: QLQLQESGPGLVKPSETLSLTCTVSGDSISSSSYYWGWIRQPPGKGLEWIGSIFYSGNTYYNPSLKSRVTISVDTSKNQFSLKLSSVTAADTAVYYCAREDDFLTDYYGAFDIWGQGTMVTVSS VL: not shown"

# The remaining lines, values behind:
Binder,KD mutant/KD wild type [1] [fold],KD mutant/KD wild type [2] [fold],KD mutant/KD wild type [3] [fold],KD mutant/KD wild type [4] [fold],KD mutant/KD wild type [5] [fold],KD mutant/KD wild type [6] [fold],KD mutant/KD wild type [7] [fold],KD mutant/KD wild type [8] [fold],KD mutant/KD wild type [9] [fold],binding result [5],binding result [7],binding result [9],binding result [2]
"Fab fragment of antibody 15431 (Fab, V domains shown, not shown: a dimerising Fc or GST, monomeric Fab made by GingisKHAN digestion of the IgG1) VH: QVQLQQSGPGLVKPSQTLSLTCAISGDSVSSNSAAWNWIRQSPSRGLEWLGRTYYRSKWYNDYAVSVKSRITINPDTSKNQFSLQLNSVTPEDTAVYYCARDDDWNDFDYWGQGTLVTVSS VL: EIVLTQSPATLSLSPGERATLSCRASQSVSSYLAWYQQKPGQAPRLLIYDASNRATGIPARFSGSGSGTDFTLTISSLEPEDFAVYYCQQRSNWPLTFGGGTKVEIKR",0.6,0.8,1.1,0.4,–,0.6,–,0.8,–,no binding (tested: 300 nM),no binding (tested: 300 nM),no binding (tested: 300 nM),–
"Fab fragment of antibody 15011 (Fab, V domains shown, not shown: a dimerising Fc or GST, monomeric Fab made by GingisKHAN digestion of the IgG1) VH: EVQLLESGGGLVQPGGSLRLSCAASGFDFRSYAMMWVRQAPGKGLEWVGGINGEVGGSNTYYAPAVKGRATISRDNSKNTLYLQMNSLRAEDTAVYYCVKGAGACGICNDDIDAWGQGTLVTVSS VL: SYELTQDPAVSVALGQTVRITCSGAGSYAGSYYYGWHQQKPGQAPVTVIYDNDKRPSNIPDRFSGSSSGNTASLTITGAQAEDEADYYCGSTNDNDDGGLFGSGTKVTVLG",0.5,1.9,0.6,0.6,0.5,2.1,0.5,53.4,0.7,–,–,–,–
